As usually defined, the Kd is the free concentration of one partner at which half of the binding sites on the other are occupied at equilibrium, for simple one-to-one binding. One may read the EC50 as the concentration giving half of the maximal effect. A lower EC50 goes with an effect from little substance.

Bounds are passed on as bounds.

The target in one experiment is Cinpanemab (BIIB-054). Briefly: SPR.
In experiment [1] the target is Full length, human α-synuclein, recombinant monomer (Homo sapiens (Human).) (UniProt P37840). Put plainly: microfluidic diffusional sizing.
For experiment [2], the target named is human α-syn oligomers (ND Biosciences) (Homo sapiens (Human).) (UniProt P37840). Briefly: microfluidic diffusional sizing.
Experiment [3] concerns the target α-syn aggregates of MSA patient brain (Homo sapiens (Human).) (UniProt P37840). Briefly: ELISA.
Experiment [4] addresses α-syn aggregates of PD patient brain (Homo sapiens (Human).) (UniProt P37840). Briefly: ELISA. In general terms: ELISA stands for enzyme-linked immunosorbent assay.

“Full length, human α-synuclein, recombinant monomer (from UniProt P37840 1-140) (natural protein)” gave a Kd with Cinpanemab (BIIB-054) of more than 100 nM.

“Lu AF82422 (amlenetug), monospecific wild type human IgG1 (antibody)”: the Kd worked out at 12 nM in experiment [1] and 0.3 nM in experiment [2]. Moreover, the figures for the EC50 in experiment [3] and in experiment [4] were 0.09 nM and 0.16 nM, respectively.

(Values after article PMC12098740.)
